Substrate in the data set: O=C(O)C[C@H](C(=O)O)[C@@H](O)C(=O)O
The experiment in a line: purified protein. Format: biochemical, Toxoplasma gondii. Conditions: NADP+ co-substrate; Solarbio ICDHm kit.

The text below walks through data of publication PMC12234471, “The apicoplast localized isocitrate dehydrogenase is needed for de novo fatty acid synthesis in the apicoplast of Toxoplasma gondii” (Frontiers in Cellular and Infection Microbiology, 2025).

B1: TgICDH1 (Toxoplasma gondii) (protein)
chain: QRIKVDQPVVEMDGDEMARVIWAMIKEKLILPYLDIPLMYYDLSIQHRDKTDDQVTIDAALAIKRHGVGVKCATITPDEQRVKEFNLKKMWKSPNATIRNTLDGTIFRAPILMKNVPRLVPSWTKPIIIGRHAHADQYKALDFTVDKPGRFVMSFIPADKSNPEVHEVYEFKGGGVALGMYNTDASIKGFAHSCFQYALDQKMPLYLSTKNTVLKKYDGRFKDIFQTIYEKEYKQKFEEAGLWYEHRLIDDMVAQAIKSSGGFVWACKNYDGDVQSDVVAQGYGSLGLMTSVLVCPDGKTIEAEAAHGTVTRHYRQYQKGIKTSTNPIASIYAWTRSLGHRAKLDNNQKLKEFVEALEDACVETVEAGFMTKDLALAIKGDKLTDRDYLCTEDFMDKLARVAERKLLERQIISKA
notes: truncation AA180-594 (leader peptide removed), cloned from RH cDNA in pET-sumo, His-tag resin purified from E. coli BL21
With B1, the Michaelis constant (Km) was 160.7 µM.

Usually Km stands for the concentration of substrate that gives half-maximal velocity.
